# Reference: patent US20210388087A1 (Chugai, published 2021)
# Numbering of substitutions follows the chain as printed.
# B1: H183/L072 VL R29K (antibody, name in Kabat numbering, V domains shown)
# VH: QVQLVESGGGLVQPGRSLRLSCAASGFTFSNAWMHWVRQAPGKGLEWVAQIKDKGNAYAAYYAPSVKGRFTISRDDSKNSIYLQMNSLKTEDTAVYYCHYVHYASASTVLPAFGVDAWGQGTTVTVSS
# VL: DIVMTQSPLSLPVTPGEPASISCQASQELVHMNKNTYLHWYQQKPGQAPRLLIYKVSNRFPGVPDRFSGSGSGTDFTLKISRVEAEDVGVYYCAQGTSVPFTFGQGTKLEIK
# notes: Dual-Ig
# B2: H183/L072 VL S26F (antibody, name in Kabat numbering, V domains shown)
# VH: B1 VH
# VL: B1 VL with S26F, K34R
# notes: Dual-Ig
# B3: H183/L072 VL R54H (antibody, name in Kabat numbering, V domains shown)
# VH: B1 VH
# VL: B1 VL with K34R, R59H
# notes: Dual-Ig
# B4: H183/L072 VL R54S (antibody, name in Kabat numbering, V domains shown)
# VH: B1 VH
# VL: B1 VL with K34R, R59S
# notes: Dual-Ig
# B5: H183/L072 VL R29S (antibody, name in Kabat numbering, V domains shown)
# VH: B1 VH
# VL: B1 VL with K34S
# notes: Dual-Ig
# B6: H183/L072 VL S52D (antibody, name in Kabat numbering, V domains shown)
# VH: B1 VH
# VL: B1 VL with K34R, S57D
# notes: Dual-Ig
# B7: H183/L072 VL S26K (antibody, name in Kabat numbering, V domains shown)
# VH: B1 VH
# VL: B1 VL with S26K, K34R
# notes: Dual-Ig
# B8: H183/L072 VL S26D (antibody, name in Kabat numbering, V domains shown)
# VH: B1 VH
# VL: B1 VL with S26D, K34R
# notes: Dual-Ig
# B9: H183/L072 VL R54A (antibody, name in Kabat numbering, V domains shown)
# VH: B1 VH
# VL: B1 VL with K34R, R59A
# notes: Dual-Ig
# B10: H183/L072 VL S26Q (antibody, name in Kabat numbering, V domains shown)
# VH: B1 VH
# VL: B1 VL with S26Q, K34R
# notes: Dual-Ig
# B11: H183/L072 VL S26E (antibody, name in Kabat numbering, V domains shown)
# VH: B1 VH
# VL: B1 VL with S26E, K34R
# notes: Dual-Ig
# B12: H183/L072 VL R54D (antibody, name in Kabat numbering, V domains shown)
# VH: B1 VH
# VL: B1 VL with K34R, R59D
# notes: Dual-Ig
# B13: H183/L072 VL R54T (antibody, name in Kabat numbering, V domains shown)
# VH: B1 VH
# VL: B1 VL with K34R, R59T
# notes: Dual-Ig
# B14: H183/L072 VL S26Y (antibody, name in Kabat numbering, V domains shown)
# VH: B1 VH
# VL: B1 VL with S26Y, K34R
# notes: Dual-Ig
# B15: H183/L072 VL R29Q (antibody, name in Kabat numbering, V domains shown)
# VH: B1 VH
# VL: B1 VL with K34Q
# notes: Dual-Ig
# B16: H183/L072 VL S26I (antibody, name in Kabat numbering, V domains shown)
# VH: B1 VH
# VL: B1 VL with S26I, K34R
# notes: Dual-Ig
# B17: H183/L072 VL R54L (antibody, name in Kabat numbering, V domains shown)
# VH: B1 VH
# VL: B1 VL with K34R, R59L
# notes: Dual-Ig
# B18: H183/L072 VL R54F (antibody, name in Kabat numbering, V domains shown)
# VH: B1 VH
# VL: B1 VL with K34R, R59F
# notes: Dual-Ig
# B19: H183/L072 VL R54E (antibody, name in Kabat numbering, V domains shown)
# VH: B1 VH
# VL: B1 VL with K34R, R59E
# notes: Dual-Ig
# B20: H183/L072 VL R29T (antibody, name in Kabat numbering, V domains shown)
# VH: B1 VH
# VL: B1 VL with K34T
# notes: Dual-Ig
# B21: H183/L072 VL R29W (antibody, name in Kabat numbering, V domains shown)
# VH: B1 VH
# VL: B1 VL with K34W
# notes: Dual-Ig
# B22: H183/L072 VL R29V (antibody, name in Kabat numbering, V domains shown)
# VH: B1 VH
# VL: B1 VL with K34V
# notes: Dual-Ig
# B23: H183/L072 VL R29N (antibody, name in Kabat numbering, V domains shown)
# VH: B1 VH
# VL: B1 VL with K34N
# notes: Dual-Ig
# B24: H183/L072 VL S26L (antibody, name in Kabat numbering, V domains shown)
# VH: B1 VH
# VL: B1 VL with S26L, K34R
# notes: Dual-Ig
# B25: H183/L072 VL S26T (antibody, name in Kabat numbering, V domains shown)
# VH: B1 VH
# VL: B1 VL with S26T, K34R
# notes: Dual-Ig
# B26: H183/L072 VL S26G (antibody, name in Kabat numbering, V domains shown)
# VH: B1 VH
# VL: B1 VL with S26G, K34R
# notes: Dual-Ig
# B27: H183/L072 VL S26W (antibody, name in Kabat numbering, V domains shown)
# VH: B1 VH
# VL: B1 VL with S26W, K34R
# notes: Dual-Ig
# B28: H183/L072 VL R54V (antibody, name in Kabat numbering, V domains shown)
# VH: B1 VH
# VL: B1 VL with K34R, R59V
# notes: Dual-Ig
# B29: H183/L072 VL S52A (antibody, name in Kabat numbering, V domains shown)
# VH: B1 VH
# VL: B1 VL with K34R, S57A
# notes: Dual-Ig
# B30: H183/L072 VL S26H (antibody, name in Kabat numbering, V domains shown)
# VH: B1 VH
# VL: B1 VL with S26H, K34R
# notes: Dual-Ig
# B31: H183/L072 VL R54P (antibody, name in Kabat numbering, V domains shown)
# VH: B1 VH
# VL: B1 VL with K34R, R59P
# notes: Dual-Ig
# B32: H183/L072 VL R54W (antibody, name in Kabat numbering, V domains shown)
# VH: B1 VH
# VL: B1 VL with K34R, R59W
# notes: Dual-Ig
# B33: H183/L072 VL R29L (antibody, name in Kabat numbering, V domains shown)
# VH: B1 VH
# VL: B1 VL with K34L
# notes: Dual-Ig
# B34: H183/L072 VL R54K (antibody, name in Kabat numbering, V domains shown)
# VH: B1 VH
# VL: B1 VL with K34R, R59K
# notes: Dual-Ig
# B35: H183/L072 VL S26N (antibody, name in Kabat numbering, V domains shown)
# VH: B1 VH
# VL: B1 VL with S26N, K34R
# notes: Dual-Ig
# B36: H183/L072 VL S26M (antibody, name in Kabat numbering, V domains shown)
# VH: B1 VH
# VL: B1 VL with S26M, K34R
# notes: Dual-Ig
# B37: H183/L072 VL R29P (antibody, name in Kabat numbering, V domains shown)
# VH: B1 VH
# VL: B1 VL with K34P
# notes: Dual-Ig
# B38: H183/L072 VL R29Y (antibody, name in Kabat numbering, V domains shown)
# VH: B1 VH
# VL: B1 VL with K34Y
# notes: Dual-Ig
# B39: H183/L072 VL S26P (antibody, name in Kabat numbering, V domains shown)
# VH: B1 VH
# VL: B1 VL with S26P, K34R
# notes: Dual-Ig
# B40: H183/L072 VL R54Q (antibody, name in Kabat numbering, V domains shown)
# VH: B1 VH
# VL: B1 VL with K34R, R59Q
# notes: Dual-Ig
# B41: H183/L072 VL S26R (antibody, name in Kabat numbering, V domains shown)
# VH: B1 VH
# VL: B1 VL with S26R, K34R
# notes: Dual-Ig
# B42: H183/L072 VL R29M (antibody, name in Kabat numbering, V domains shown)
# VH: B1 VH
# VL: B1 VL with K34M
# notes: Dual-Ig
# B43: H183/L072 VL S26V (antibody, name in Kabat numbering, V domains shown)
# VH: B1 VH
# VL: B1 VL with S26V, K34R
# notes: Dual-Ig
# B44: H183/L072 VL R54G (antibody, name in Kabat numbering, V domains shown)
# VH: B1 VH
# VL: B1 VL with K34R, R59G
# notes: Dual-Ig
# B45: H183/L072 VL R54I (antibody, name in Kabat numbering, V domains shown)
# VH: B1 VH
# VL: B1 VL with K34R, R59I
# notes: Dual-Ig
# B46: H183/L072 VL R54M (antibody, name in Kabat numbering, V domains shown)
# VH: B1 VH
# VL: B1 VL with K34R, R59M
# notes: Dual-Ig
# Target: T1, Human CD137 ECD (human)
# T1 construct: entry includes C-terminal His-tag and biotin acceptor peptide; also called human CD137 extracellular domain; 4-1BB
# Test: Biacore SPR, vs parent H183/L072
# T1 sequence (chain, as listed by the source limits assumed): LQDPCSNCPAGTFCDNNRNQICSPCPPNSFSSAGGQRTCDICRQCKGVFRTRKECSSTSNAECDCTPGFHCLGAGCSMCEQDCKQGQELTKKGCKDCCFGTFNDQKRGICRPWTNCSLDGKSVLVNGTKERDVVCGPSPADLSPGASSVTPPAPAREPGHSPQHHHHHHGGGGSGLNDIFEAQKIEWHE
row,fold change of affinity [fold],Binder
1,1.1,B1
2,0.2,B2
3,0.6,B3
4,0.9,B4
5,0.9,B5
6,0.8,B6
7,0.5,B7
8,0.8,B8
9,0.9,B9
10,0.7,B10
11,0.8,B11
12,0.3,B12
13,2.5,B13
14,0.2,B14
15,0.9,B15
16,0.2,B16
17,0.9,B17
18,0.3,B18
19,0.6,B19
20,0.8,B20
21,0.6,B21
22,0.3,B22
23,0.9,B23

row,fold change of affinity [fold],Binder
1,0.3,B24
2,1,B25
3,0.9,B26
4,0.1,B27
5,1.3,B28
6,1,B29
7,0.2,B30
8,0.9,B31
9,0.4,B32
10,0.9,B33
11,1,B34
12,0.7,B35
13,0.6,B36
14,0.2,B37
15,0.6,B38
16,0.2,B39
17,0.8,B40
18,0.3,B41
19,0.9,B42
20,0.3,B43
21,0.9,B44
22,1,B45
23,0.5,B46
